This passage reports IC50 and IC90 results from patent US20220195015A1.

The target of the assay is SARS-CoV-2 spike (S) protein on pseudotyped HIV-1 reporter virus (SARS-CoV-2) (UniProt P0DTC2). In words: cell-based or functional assay.

C144 (antibody), sequence (VH): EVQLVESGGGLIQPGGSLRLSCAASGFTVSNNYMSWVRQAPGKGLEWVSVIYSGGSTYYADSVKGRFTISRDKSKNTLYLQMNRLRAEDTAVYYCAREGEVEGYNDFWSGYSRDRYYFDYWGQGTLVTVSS
C144 (antibody), sequence (VL): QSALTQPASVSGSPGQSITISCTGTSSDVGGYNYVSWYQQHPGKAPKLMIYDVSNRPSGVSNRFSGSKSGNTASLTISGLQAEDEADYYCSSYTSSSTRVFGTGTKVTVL

What is called IC50 is the concentration that gives 50% inhibition. Lower therefore signals higher potency. By IC90 is commonly meant the concentration needed for an effect of 90%. As for C144 (antibody), the IC50 came to 0.00286 µg/mL and the IC90 was 0.0405 µg/mL.
